Data as given in the Human Domainome abundance scans (Beltran et al. 2025).

B1: Receptor-interacting serine/threonine-protein kinase 2, residues 438 to 518; numbered along this chain, O43353 (parent)
chain: QWIQSKREDIVNQMTEACLNQSLDALLSRDLIMKEDYELVSTKPTRTSKVRQLLDTTDIQGEEFAKVIVQKLKDNKQMGLQ

Variants of: B1
Assay: abundance fitness (aPCA) (normalised: wild type 0, dead -1); higher = more abundant; growth selection in yeast, the domain comes from the species named
Conditions: Homo sapiens

Abundance fitness: each site, then its substitutions
Y37: A -0.084, C -0.547, D -0.471, G -0.519, H -0.568, I -0.401, K -0.412, L -0.186, M -0.788, N -0.401, P -0.614, Q -0.547, S -0.518, V -0.413, W -0.232
E38: A -0.129, C -0.719, F -0.221, G -0.509, H -0.06, I 0.053, K -0.216, L -0.075, M -0.088, N -0.463, Q -0.165, R -0.227, S -0.375, T -0.157, V -0.226, W -0.12, Y -0.237
L39: A 0.092, C -0.379, D -0.194, E -0.003, F -0.436, G -0.34, H -0.107, I -0.352, K 0.119, M -0.218, N -0.034, P -0.635, R 0.015, S -0.138, V -0.199, W -0.815, Y -0.407
V40: A -0.528, C -0.302, D -0.754, E -0.682, F -0.436, G -0.715, H 0.095, I 0.146, L -0.701, M -0.815, N -0.466, P -0.732, R -0.836, S -0.603, T -0.997, W -1.04, Y -0.438
S41: A -0.007, C -0.042, D -0.448, E -0.259, G -0.295, I 0.09, K 0.158, L 0.069, M 0.166, N 0.094, P -0.599, Q 0.139, R 0.046, T -0.004, V 0.11, W -0.466, Y -0.117
T42: A -0.069, C -0.108, D -0.318, E -0.158, F -0.243, H -0.156, I -0.225, K -0.206, L -0.225, M 0.012, N -0.115, P -0.89, Q 0.207, R 0.066, S 0.022, V -0.415, Y -0.406
K43: C -0.219, D -1.06, F -0.466, G -0.451, H -0.109, I -0.535, L -0.008, P -0.695, Q -0.098, R 0.013, S -0.46, T -0.89, V -0.348, W -1.04, Y -1
P44: A -0.181, C -0.491, E -0.141, G -0.314, H -0.761, K -0.298, L -0.263, N -0.196, Q -0.169, R -0.265, S -0.304, T -0.283, V -0.214, W -0.483, Y -0.2
T45: A -0.476, C -0.308, D 0.029, E -0.364, H -0.568, I -0.87, K -0.999, L -0.696, N -0.011, P -0.579, Q -0.652, R -0.879, V -0.56, W -0.571, Y -1.11
R46: A -0.674, C -0.285, D -0.221, E -0.214, F -0.447, G -0.596, H -0.012, I 0.007, L 0.143, M -0.411, N -0.288, P -0.519, T 0.02, V -0.045, W -0.796
T47: A 0.121, C -0.254, D -0.152, E 0.201, F -0.493, G -0.185, H 0.111, K -0.031, L -0.373, M -0.431, N -0.286, P -0.228, Q -0.145, R 0.049, S -0.061, V -0.153, W -0.333, Y -0.57
S48: A 0.072, C -0.293, D 0.065, E 0.542, F -0.527, G -0.11, H -0.47, I -0.923, L -0.04, M -0.142, N -0.892, P -0.651, Q 0.123, R -0.466, T -0.224, V -0.534, W -0.819, Y -0.644
K49: A -0.586, C -0.81, D -0.389, E -0.576, H -0.628, I -0.564, M -0.137, P -0.625, Q -0.786, R -0.283, S -0.58, T -0.761, V -0.784, W -0.722, Y -0.625
V50: A -0.842, D -0.493, E -0.538, G -0.679, H -0.696, I -0.524, L -0.817, N -0.737, P -0.53, Q -0.612, R -0.802, S -0.389, T -0.505, W -0.903, Y -0.761
R51: A -0.145, C -0.307, D -0.517, E -0.273, G -0.407, H -0.518, I -0.235, K -0.071, L -0.254, M -0.354, N -0.207, P -0.501, Q -0.052, S -0.194, T -0.255, V -0.273, W -0.802
Q52: A 0.082, C -0.203, D -0.526, E -0.512, F -0.403, G -0.556, H -0.493, K -0.442, L -0.57, M -0.42, P -0.551, S -0.196, V -0.603, W -0.011, Y -0.77
L53: A -0.396, C -0.433, D -0.689, E -0.536, F -0.785, G -0.433, H -0.666, I -0.544, K -0.366, M -0.517, N -0.845, P -0.423, Q -0.567, R -0.643, S -0.679, T -0.417, V -0.56, W -0.595, Y -0.821
L54: A -0.345, C -0.45, D -0.452, E -0.3, F -0.936, G -0.519, H -0.542, K -0.408, M -0.622, P -0.553, Q -0.646, R -0.475, S -0.649, T -0.925, V -0.777, W -1.08, Y -0.814
D55: C -0.122, E -0.015, G -0.51, H -0.665, I -0.168, K -0.469, L -0.132, M -0.03, N -0.347, P -0.676, Q -0.277, R -0.162, S -0.153, T -0.313, V -0.27, W -0.475, Y -0.445
T56: A -0.161, C -0.105, D -0.849, E -0.332, F 0.037, G -0.458, H -0.206, I 0.19, L 0.175, N -0.572, P -0.612, Q -0.024, R -0.533, S -0.273, V 0.108, W 0.125, Y 0.046
T57: A 0.045, C 0.125, D -0.28, E -0.082, F -0.392, G -0.004
